Results published in paper doi:10.1101/2021.09.01.458653 (bioRxiv, 2021).

Molecular target: RBD-Fc (secreted recombinant receptor-binding domain of SARS-CoV-2 spike) (SARS-CoV-2, UniProt P0DTC2)
Assay: immunoassay on cellulose filter paper discs

B1: Ty1-CBD bifunctional fusion protein (nanobody Ty1 fused to a cellulose-binding domain) (VHH)
VHH: QVQLVETGGGLVQPGGSLRLSCAASGFTFSSVYMNWVRQAPGKGPEWVSRISPNSGNIGYTDSVKGRFTISRDNAKNTLYLQMNNLKPEDTALYYCAIGLNLSSSSVRGQGTQVTVSS
Does B1 bind?
Result: binds

B2: Ty1 without CBD module (control protein) (VHH)
VHH: B1 VHH
Does B2 bind?
Result: binds
